Assay results from patent publication US20100196361A1, “Method of inhibition of vascular development using an antibody” (DYAX CORP., priority 2003, published 2010).
Residue numbers refer to the chain shown, from its start.

B1: E3: human anti-Tie1 antibody from phage Fab library, reformatted as IgG; HC variable SEQ ID NO:114, LC variable SEQ ID NO:116 (antibody, V domains shown)
VH: EVQLLESGGGLVQPGGSLRLSCAASGFTFSMYGMVWVRQAPGKGLEWVSVISPSGGNTGYADSVKGRFTISRDNSKNTLYLQVNSLRAEDTAVYYCARAPRGYSYGYYYWGQGTLVTVSSASTKGPSVFPLAPSSKSTSGG
VL: DIQMTQSPLSLSASVGDRVTITCRASQGIGHYLAWYQQKPGKVPKLLIYTASTLQSGVPSRFSGSGSGTDFTLTINSLQPEDVATYYCQQFNSYPHTFGQGTRLDIK
modifications: IgG constant regions; Synthetically generated peptide
B2: DX-2210: E3 antibody in which the light chain has been germlined (antibody, V domains shown)
VH: B1 VH
VL: B1 VL with L9S, N76S, D105E

Key:
HUVEC [1] = assay: Tube formation by HUVEC in collagen gel; format: cell-based, human
Protocol: Human Umbilical vein endothelial cells (HUVEC) were obtained by treating fresh human umbilical cord veins with Trypsin-EDTA (1×) (Gibco/Invitrogen) for 20-25 minutes at 37° C. The cells were cultured in a T-25 flask coated with attachment factor (AF), (Cascade Biologics) in RPMI 1640 medium supplemented with 10% FCS, 0.4% BBE, 1% 1-glutamin, 1% penicillin/streptomycin. Primary cultures were detached with warm Trypsin-EDTA and used when confluent at the second or third passage. The cells were maintained in a proliferative state by culturing them in a split ratio 1:2 at an approximate density of the monolayer of about 60-80%. […]
After 2 passages HUVECs were seeded in their culture medium (40×10^3/50 μl/well of a 96-well plate) on a collagen gel (50 μl of collagen I 1.5 mg/ml) prepared by mixing 7.5 volumes of 2 mg/ml collagen (Collagen R; Serva, Heidelberg, Germany), 1 volume of 10× MEM, 1.5 volume of NaHCO3 (15.6 mg/ml) and ˜1 volume of NaOH to adjust the pH to 7.4. […] The assay was performed with a streptavidin antibody used as a control (from 1 ng/ml to 10 μg/ml): The total length of the tube network on the culture surface was quantified at 40× magnification by the METAVUE™ Software (Universal Imaging Corporation). Results from triplicate wells were expressed as mean vessel area per field ±SEM (relative units). […]

HUVEC [2] = assay: Flow cytometry on HUVEC control cells; format: binding, human
Protocol: Specific binding of the Tie1 antibodies and of control Mabs to mouse endothelial cells was measured by flow cytometry analysis (FACSscan, Becton Dickinson, Oxnard, Epics, Coulter). Mouse endothelial cell lines MS1, Le-2, Bend3, SVEC (ATCC, Rockville) and Tie1 transfected Le-2 cells were stained. Cell staining was modified from existing protocols. About 200,000 cells were used in each experiment: after trypsinization, cells were washed one time in PBS and resuspended PBS, 10% heat inactivated human serum (incubation buffer). To test specificity, antibodies were incubated at different dilutions for 1 h at room temperature. Cells were spun down by centrifugation for 3 min at 611 g. Between incubations cells were washed twice with PBS. […] After the final incubation step bound antibodies were detected by means of flow cytometry on a FACSCan and Epics Altra (Becton Dickinson, Oxnard, Coulter) and results analyzed.
Intracellular Tie1 was measured as described above, except for the addition of Saponin to the incubation buffer to a final concentration of 0.1% during incubations. […] The binding pattern in mouse cell lines detected by flow cytometry is different from the binding pattern in HUVEC in that in mouse cells there is a greater cell surface staining than that compared to primary human endothelial cell lines. […]

Molecule	IC50, tube formation (HUVEC [1]; HUVEC, collagen type-I matrix, 0.1 ng/ml to 100 ng/ml tested)	inhibition of tube formation by HUVECs (HUVEC [1]; collagen type-I gel)	staining of HUVEC control cells (HUVEC [2])
B1	less than 10 ng/ml	potent inhibitor of tube formation by HUVECS even at a concentration of 10 ng/ml	
B2			stained positively
